Results from paper PMC4366199, “Arfaptin-1 Negatively Regulates Arl1-Mediated Retrograde Transport” (PLoS ONE, 2015).

B1: arfaptin-1a (Arf-interacting protein 1, short isoform), endogenous (natural protein, human (endogenous in HeLa), UniProt P53367-2 1-341, looked up)
chain: MAQESPKNSAAEIPVTSNGEVDDSREHSFNRDLKHSLPSGLGLSETQITSHGFDNTKEGVIEAGAFQGGQRTQTKSGPVILADEIKNPAMEKLELVRKWSLNTYKCTRQIISEKLGRGSRTVDLELEAQIDILRDNKKKYENILKLAQTLSTQLFQMVHTQRQLGDAFADLSLKSLELHEEFGYNADTQKLLAKNGETLLGAINFFIASVNTLVNKTIEDTLMTVKQYESARIEYDAYRTDLEELNLGPRDANTLPKIEQSQHLFQAHKEKYDKMRNDVSVKLKFLEENKVKVLHNQLVLFHNAIAAYFAGNQKQLEQTLKQFHIKLKTPGVDAPSWLEEQ
notes: arfaptin-1a, short isoform of arfaptin-1; lacks the insertion (residues 69-100) of arfaptin-1b; also called arfaptin-1a (short form); source: endogenous, HeLa lysate
B2: arfaptin-1b (Arf-interacting protein 1b, long isoform), endogenous (natural protein, human (endogenous in HeLa), UniProt P53367 1-373, looked up)
chain: MAQESPKNSAAEIPVTSNGEVDDSREHSFNRDLKHSLPSGLGLSETQITSHGFDNTKEGVIEAGAFQGSPAPPLPSVMSPSRVAASRLAQQGSDLIVPAGGQRTQTKSGPVILADEIKNPAMEKLELVRKWSLNTYKCTRQIISEKLGRGSRTVDLELEAQIDILRDNKKKYENILKLAQTLSTQLFQMVHTQRQLGDAFADLSLKSLELHEEFGYNADTQKLLAKNGETLLGAINFFIASVNTLVNKTIEDTLMTVKQYESARIEYDAYRTDLEELNLGPRDANTLPKIEQSQHLFQAHKEKYDKMRNDVSVKLKFLEENKVKVLHNQLVLFHNAIAAYFAGNQKQLEQTLKQFHIKLKTPGVDAPSWLEEQ
notes: arfaptin-1b, long isoform of arfaptin-1 with an insertion (residues 69-100) absent from arfaptin-1a; source: endogenous, HeLa lysate

Target: T1, GST-Arl1QL (Arf-like protein 1, Gln71 to Leu, putative active GTP-bound form) (human, UniProt P40616 1-181, Gln71 to Leu (Arl1QL))
T1 construct: Arf-like protein 1 (Arl1), human; fragment encoding Arl1QL subcloned into pGEX4T via EcoRI; Loaded with GTPγS on the resin; also called active form of Arl1; source: E. coli BL21, immobilized on glutathione-sepharose resin, exchanged for GTPγS
T1 sequence (looked up): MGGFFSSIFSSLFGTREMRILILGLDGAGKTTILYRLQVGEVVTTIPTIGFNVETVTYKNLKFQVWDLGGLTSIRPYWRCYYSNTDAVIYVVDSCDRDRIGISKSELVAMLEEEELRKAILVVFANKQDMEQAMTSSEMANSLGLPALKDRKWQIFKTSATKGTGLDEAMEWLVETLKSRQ
Experiment: pull-down; GST fusion proteins (5 μg) immobilized on glutathione-sepharose, incubated with GTPγS (QL) or GDP (TN); HeLa lysates (2.5 mg), endogenous proteins; 12.5% SDS-PAGE and western blotting
Conditions: one partner purified

Binder	fold change of the level bound, against Arf1QL [fold]
B1	1.84
B2	1.84
